Laboratory results taken from patent US20150010586A1 (ACADEMISCH ZIEKENHUIS LEIDEN H O D N LUMC, published 2015).

Assays:
Assay in all cases: cellular competition assay vs FL-labelled reference peptide on B cells; affinity category (high/good IC50<5 uM, intermediate 5-15 uM, low >15-50 uM)
[1] = target: T1, HLA-A*0101 (human)
T1 construct: whole, on cells; also called A1

[2] = target: T2, HLA-A*0301 (human)
T2 construct: whole, on cells; Class I molecule on intact B cells (EKR); also called A3

[3] = target: T3, HLA-A*1101 (human)
T3 construct: whole, on cells; Class I molecule on intact B cells (BVR)

IC50 [1] [µM]	IC50 [2] [µM]	IC50 [3] [µM]	Binder
5 to 15	–	–	CTTIHYNY (also called A1 (229-236)) [p53 229-236 CTTIHYNY]
5 to 15	–	–	YLDDRNTFRH (also called A1 (205-214)) [p53 205-214 YLDDRNTFRH]
–	5 to 15	–	RVRAMAIY (also called A3 (156-163)) [p53 156-163 RVRAMAIY]
5 to 15	5 to 15	–	GTAKSVTCTY (also called A1 (117-126); A3 (117-126)) [p53 117-126 GTAKSVTCTY]
–	5 to 15	–	GGSRAHSSHLK (also called A3 (360-370)) [p53 360-370 GGSRAHSSHLK]
–	–	5 to 15	GQSTSRHKK (also called A11 (374-382)) [p53 374-382 GQSTSRHKK]
